Patent publication US11906524B2, “Urea biosensors and uses thereof” (Duke University, priority 2015, dated 2024)
Marks after values point to notes of the source that are not given here.

Assay: Thermal stability of purified UBP candidates (SYPRO Orange thermal melt, Roche LightCycler)
Type: physicochemical
Conditions: apo-protein; SYPRO Orange monitors unfolded protein
Method: The urea-binding properties of these leads were determined experimentally (Table 4). These experiments comprise four successive steps: • 1. Synthetic gene construction. […] Heterologous protein expression of the homologues in E. coli. […] Verification of urea binding.
Analysis of urea-binding properties using thermal melts.

B1: bsUBP3: urea-binding protein from Bacillus sp., SEQ ID NO: 14 (protein)
chain: MKVGILHSLSGTMAISEVSVHDAELIAIQEINQKGGVLGKKLEPVVEDGASDWPTYAEKMRKLLQQDKVAAVFGGWTSASRKAMLPVVEQNNGLLFYPVQYEGMETSPNIFYTGATTNQQIVPAVDWLLKNKGKKFFLIGSDYVFPRTANKIIKAQVKAGGGEIAGEEYTPLGHTNYSTLVSKIKEKQPDVIFNTLNGDSNVAFFKQLKDAGISADDMPVMSASVAEEEIRGIGPDVLKGHYAVWNYFQTTNTSENQTFVKNYKKMNGDSRVTSDPIEAGYNAVYLWAAAVEKAKSFDVDKVKKAADGISFKAPGGTVKIDGDTQHLYKTVRIGQITGDGQFKEVWNSGEPVKPDPYLKTYDWAKGLSKGGSHHHHHH
modifications: bsUBP3 (with signal peptide replaced with M and a GGSHHHHHH at C-terminus)
For B1, the “Thermostability ^apoTm” value was 51 °C.

B2: mhUBP2: urea-binding protein from Marinobacter hydrocarbanoclasticus, SEQ ID NO: 13 (protein)
chain: MKVGILHSLSGTMAISETALKDTMLMLIEKQNEAGGVLGRQLEPVVVDPASNWPLFAEKARELLEKEKVDVIFGNWTSVSRKSVLPVVEELNGLLFYPVQYEGEESSENVFYTGAAPNQQAIPAVDYLMNDLGVERWVLAGTDYVYPRTTNKILETYLKDKGVAAGDIMINYTPFGHSDWQTIVSDIKKFGSAGKKTAVVSTINGDANVPFYRELGNQGISATDIPVVAFSVGEQELSGIDTAPLVGHLAAWNYFMSVDNDANYDFIDAWVAYKGDDAAVTNDPMEAHYIGFNMYVEAVKKAGTTDVDEVKDAIIGVSVPNLTGGYATMMPNHHITKPVLIGEIQDNGQFSVVWETPSTVAGDAWSDFLPGSKDLISDWRAPLRAGNFNVVTGKAGGGSADVASNGGSHHHHHH
modifications: mhUBP2 (with signal peptide replaced with M and a GGSHHHHHH at C-terminus, and also comprising C385A and C395A mutations)
For B2, the “Thermostability ^apoTm” value was <25^e ° C.

B3: teUBP12: urea-binding protein from Thermosynechococcus elongatus with FATT domain, SEQ ID NO: 22 (protein)
chain: MAEESDNVDSADAEEDDSDVWWGGADTDYADGSEDKVVEVAEEEEVAEVEEEEADDDEDDEDGDEVEEEAEEPYEEATERTTSIATTTTTTTESVEEVLEVLFQGPGGDTIKVGILHSLSGTMAISEKSVVDATQLAIEQINQAGGVLGKQIQPILEDGASDWPTFAEKATKLIDQDKVVAVFGAWTSASRKAVLPVFESKNHMLWYPVQYEGQEASKNIFYTGAAPNQQIEPAVDWLLQNKGKKFFLVGSDYVFPRTANTIIKAQLAAKGGETVGEDYLPLGNTEVTPIITRIRNALPDGGVIFNTLNGDSNVAFFKQLQGAGLTPDKYPTMSVSIAEEEVQAIGVEYLKGHYAAWNYFMTVDTPENKSFVEAFKAKFGQNRVTNDPMEAAYIAVHLWKQAVEQAGTADDLEKVRQAAIGQTFNAPEGPVKMFANHHISKTVRIGEVGEDGLFKIVYSTPQPVDPLPWNQFVAETKGFAADWTRTDVDNPGKFKAAGAGGSHHHHHH
modifications: teUBP12 (with signal peptide replaced with M, which is followed by a FATT domain, followed by a sequence fragment for C3 protease, and with a GGSHHHHHH at C-terminus, as well as C185A, C216A, and C481A mutations)
In the case of B3, the “Thermostability ^apoTm” value is reported as 84 °C.
